Reference: patent publication US20220211798A1, “THERAPY GUIDANCE AND/OR THERAPY MONITORING FOR A TREATMENT WITH ANGIOTENSIN-RECEPTOR-AGONIST AND/OR A PRECURSOR THEREOF” (4TEEN4 PHARMACEUTICALS GMBH, priority 2018, published 2022)
Entries after “also recorded” stand apart in the source; their conditions may differ.

Columns and labels:
[1] = test system: healthy Black 6 mice injected with DPP3; assay: Effect of Valsartan in healthy mice injected with DPP3; assay type: in vivo
Protocol: The effect of an antagonist for the type I angiotensin II receptor (ATR1), Valsartan, in healthy mice injected with DPP3 was studied by monitoring the shortening fraction. In this experiment, healthy Black 6 mice (8-12 weeks, group size refer to table 8) consumed water with 50 mg/kg Valsartan per day or just water (Table 8) for a period of two weeks. Subsequently, both groups received an intravenous injection of native DPP3 (600 μg/kg) and the shortening fraction was assessed according to Gao et al., 2011 at 15, 60 and 120 minutes (FIG. 12).

[2] = test system: Patients with vasodilatory shock; settings: vasodilatory shock (80% in septic shock); cited from earlier work
normotensive mice = settings: cited from earlier work
Wild type Black 6 mice = assay: Effect of native DPP3 injection in healthy mice; assay type: in vivo; settings: 600 μg/kg intravenously, compared to PBS control
Protocol: The effect of native hDPP3 injection in healthy mice was studied by monitoring the shortening fraction and renal resistive index.
Wild type Black 6 mice (8-12 weeks, group size refer to table 3) were acclimated during 2 weeks and a baseline echocardiography was done. The mice were randomly allocated to one of the two groups and, subsequently, native DPP3 protein or PBS were injected intravenously via a retro-orbital injection with a dose of 600 μg/kg for DPP3 protein.
After DPP3 or PBS injection, cardiac function was assessed by echocardiography (Gao et al. 2011) and renal function assessed by renal resistive index (Lubas et al., 2014, Dewitte et al, 2012) at 15, 60 and 120 minutes (FIG. 3).

[3] = test system: AngII-infused hypertensive mice; settings: cited from earlier work

For `CCCCC(=O)N(Cc1ccc(-c2ccccc2-c2nnn[nH]2)cc1)[C@H](C(=O)O)C(C)C` [Valsartan], the “shortening fraction after DPP3 injection” value ([1]; 50 mg/kg Valsartan per day in water for two weeks, then native DPP3 600 μg/kg intravenous) was “rescued; also recorded: no signs of heart dysfunction”.

For “Asp-Arg-Val-Tyr-Ile-His-Pro-Phe (DRVYIHPF; listed as Homo sapiens) [angiotensin II]”, the hypotension [2] is listed as “significant correction of hypotension” and the “survival to 28 days” value [2] is listed as “more likely to survive to 28 days”.

B1: native DPP3: native human Dipeptidyl peptidase 3 purified from human erythrocyte lysate (protein)
chain: ADTQYILPNDIGVSSLDCREAFRLLSPTERLYAYHLSRAAWYGGLAVLLQTSPEAPYIYALLSRLFRAQDPDQLRQHALAEGLTEEEYQAFLVYAAGVYSNMGNYKSFGDTKFVPNLPKEKLERVILGSEAAQQHPEEVRGLWQTCGELMFSLEPRLRHLGLGKEGITTYFSGNCTMEDAKLAQDFLDSQNLSAYNTRLFKEVDGEGKPYYEVRLASVLGSEPSLDSEVTSKLKSYEFRGSPFQVTRGDYAPILQKVVEQLEKAKAYAANSHQGQMLAQYIESFTQGSIEAHKRGSRFWIQDKGPIVESYIGFIESYRDPFGSRGEFEGFVAVVNKAMSAKFERLVASAEQLLKELPWPPTFEKDKFLTPDFTSLDVLTFAGSGIPAGINIPNYDDLRQTEGFKNVSLGNVLAVAYATQREKLTFLEEDDKDLYILWKGPSFDVQVGLHELLGHGSGKLFVQDEKGAFNFDQETVINPETGEQIQSWYRSGETWDSKFSTIASSYEECRAESVGLYLCLHPQVLEIFGFEGADAEDVIYVNWLNMVRAGLLALEFYTPEAFNWRQAHMQARFVILRVLLEAGEGLVTITPTTGSDGRPDARVRLDRSKIRSVGKPALERFLRRLQVLKSTGDVAGGRALYEGYATVTDAPPECFLTLRDTVLLRKESRKLIVQPNTRLEGSDVQLLEYEASAAGLIRSFSERFPEDGPELEEILTQLATADARFWKGPSEAPSGQA
For B1, the shortening fraction ([1]; native DPP3 600 μg/kg intravenous, mice on water without Valsartan) is listed as “significant decrease in the shortening fraction”, the blood pressure (normotensive mice) is listed as “no alteration in blood pressure” and the “renal resistive index (renal function)” value (Wild type Black 6 mice) is listed as “renal resistive index increase”. The shortening fraction (Wild type Black 6 mice) was “significantly reduced shortening fraction”, the “renal resistive index (renal function)” value (Wild type Black 6 mice; listed as DPP3) was “increased renal resistive index” and the shortening fraction (Wild type Black 6 mice; listed as DPP3) was “shortening fraction reduction”. The blood pressure [3] was “reduced blood pressure” and the heart rate [3] was “without changing heart rate”.
